This assay has as its target GFP-CaV1.1e (embryonic splice variant of CaV1.1, lacking exon 29).

B1: γ1 subunit of the skeletal muscle voltage-gated calcium channel (mouse γ1) (natural protein)
chain: MSQTKTAKVRVTLFFILVGGVLAMVAVVTDHWAVLSPHLEHHNETCEAAHFGLWRICTARVAVHNKDKSCEHVTPSGEKNCSYFRHFNPGESSEIFEFTTQKEYSISAAAIAIFSLGFIIVGSICAFLSFGNKRDYLLRPASMFYAFAGLCLIVSVEVMRQSVKRMIDSEDTVWIEHYYSWSFACACAAFILLFLGGLFLLLFSLPRMPQNPWESCMDAEPEH
Regarding B1, the shift of the half-maximal potential of steady-state inactivation of CaV1.1e calcium currents to hyperpolarizing potentials on coexpression of γ1 (whole-cell patch clamp, HEK-TetOn-STAC3 cells) came out at 13.7 mV.

The record behind these values is PMC9037348.
